In the supplement of paper PMC10065799, “High-throughput profiling of sequence recognition by tyrosine kinases and SH2 domains using bacterial peptide display” (eLife, 2023):

biological target: Fes (UniProt P07332); assay: phosphorylation enrichment, bacterial display (enrichment ratio); higher = better substrate or ligand; peptides without Tyr show the background
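Throughout, for SH2 binding enrichment of the phosphorylated peptide, bacterial display: peptide library displayed on the E. coli surface as eCPX fusions, selected cells deep-sequenced, score is each peptide's frequency after selection divided by its frequency in the input.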
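Throughout, for phosphorylation enrichment, bacterial display: 11-residue human phosphosite peptides and single-mutation variants displayed on the E. coli surface, counted by deep sequencing, each peptide's frequency after selection divided by its frequency in the unselected input library; frequency after pTyr selection over input frequency; kinase dosed for 20-30% of maximal phosphorylation in three min.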

Chain of Fes (P07332 whole entry, looked up, the tested form may be a part): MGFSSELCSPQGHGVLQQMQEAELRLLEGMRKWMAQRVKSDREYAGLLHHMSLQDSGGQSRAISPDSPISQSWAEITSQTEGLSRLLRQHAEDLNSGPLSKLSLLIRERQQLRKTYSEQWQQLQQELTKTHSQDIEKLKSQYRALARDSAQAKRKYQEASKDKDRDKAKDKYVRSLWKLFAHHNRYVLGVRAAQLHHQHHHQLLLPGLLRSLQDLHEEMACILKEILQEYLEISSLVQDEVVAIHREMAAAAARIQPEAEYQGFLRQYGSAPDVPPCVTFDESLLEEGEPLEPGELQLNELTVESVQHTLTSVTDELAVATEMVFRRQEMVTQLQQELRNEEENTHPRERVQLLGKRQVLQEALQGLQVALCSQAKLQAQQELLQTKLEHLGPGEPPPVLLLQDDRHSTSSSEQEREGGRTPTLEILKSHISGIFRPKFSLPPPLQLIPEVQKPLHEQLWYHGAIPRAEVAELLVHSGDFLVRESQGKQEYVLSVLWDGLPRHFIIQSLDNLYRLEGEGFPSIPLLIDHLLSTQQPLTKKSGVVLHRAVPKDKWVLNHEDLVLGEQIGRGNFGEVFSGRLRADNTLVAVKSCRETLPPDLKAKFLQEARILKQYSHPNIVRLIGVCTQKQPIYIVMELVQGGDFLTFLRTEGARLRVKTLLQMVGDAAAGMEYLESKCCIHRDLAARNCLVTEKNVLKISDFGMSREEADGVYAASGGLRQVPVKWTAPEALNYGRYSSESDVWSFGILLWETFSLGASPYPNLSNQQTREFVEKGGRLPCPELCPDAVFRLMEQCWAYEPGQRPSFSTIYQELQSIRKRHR

Sequence	phosphorylation enrichment
KLGDVYVNDAF [PGK1_Y161]	0.86
EFFDGYWEFSV [ITGA2B_Y265_G267E_YF]	1.55
LKFAIYFEARE [LAMA2_Y1258_YF]	2.6
NRLTDYYELLL [BBS10_Y536_P539L]	1.17
WDLSEYSYKDP [ITGA3_Y237]	0.998
CTTIHYNFMCS [TP53_Y234_N239S_YF]	0.902
HGDDDYDDPEL [CLNK_Y69_S65G]	2
MSPPGYKLVNG [GJA1_Y286_T290N]	0.561
PLDVEYFTLQI [TP53_Y327_G325V]	1.46
DENRFYTRAAS [RPS19_Y54_W52R]	0.907
SVVVPYEPHEV [TP53_Y220_P223H]	1.25
LSSVSYVGCSL [ADGRD1_Y571_I569V]	1.46
LLVVLNKYRCY [PSEN1_Y154_Y154N]	1.6
ALETLYKKAVK [CC2D2A_Y381_E376A]	0.864
QITQVYGFFHE [PPP2CA_Y127_D131H_YF]	1.39
LEQQKYTVTVD [IKBKB_Y199]	1.98
LTERSYSFVTT [ACTA1_Y200_G199S]	1.24

Sequence	phosphorylation enrichment
EDKSIYRRGAR [PRKCI_Y125]	0.669
FISLIYTNFEV [GSTP1_Y109_A114V_YF]	1.77
PDDPNYSLVDD [PSTPIP2_Y323]	1.81
PVQAAYQNVVA [HBB_Y131_K133N]	0.877
CTTVHYNYMCN [TP53_Y234_I232V]	0.915
QMVRMYASSYM [AVPR2_Y124_G122R]	1.28
FAELVYTSFWH [ASS1_Y322_G324S]	1.89
APQFTYTQGGQ [FLNA_Y1763_A1764T_YF]	0.681
FASALYRQRRS [FGF11_Y162_YF]	0.592
EKSREYHRLYE [PIK3R1_Y463_D464H]	0.616
RRVLVYGGRGA [QDPR_Y16]	0.681
ACLSLYGGFVE [MVD_Y164_R161L]	2.02
SENFTYIWWLN [PSG4_Y271_K267E_YF]	1.59
CTTIHQNYMCN [TP53_Y234_Y234Q]	0.917
KWHREYNSKYV [RICTOR_Y835]	0.414
SSEYHCVGGFY [CTSC_Y347_Y347C]	1.45

biological target: SHP2-C SH2; assay: SH2 binding enrichment of the phosphorylated peptide, bacterial display (enrichment ratio); higher = better substrate or ligand; peptides without Tyr show the background

Sequence	SH2 binding enrichment
KLGDVYVNDAF [PGK1_Y161]	0.729
EFFDGYWEFSV [ITGA2B_Y265_G267E_YF]	0.515
LKFAIYFEARE [LAMA2_Y1258_YF]	0.756
NRLTDYYELLL [BBS10_Y536_P539L]	0.83
WDLSEYSYKDP [ITGA3_Y237]	0.704
CTTIHYNFMCS [TP53_Y234_N239S_YF]	1.96
HGDDDYDDPEL [CLNK_Y69_S65G]	0.551
MSPPGYKLVNG [GJA1_Y286_T290N]	0.609
PLDVEYFTLQI [TP53_Y327_G325V]	0.604
DENRFYTRAAS [RPS19_Y54_W52R]	0.789
SVVVPYEPHEV [TP53_Y220_P223H]	0.781
LSSVSYVGCSL [ADGRD1_Y571_I569V]	0.691
LLVVLNKYRCY [PSEN1_Y154_Y154N]	0.79
ALETLYKKAVK [CC2D2A_Y381_E376A]	0.599
QITQVYGFFHE [PPP2CA_Y127_D131H_YF]	0.646
LEQQKYTVTVD [IKBKB_Y199]	0.616
LTERSYSFVTT [ACTA1_Y200_G199S]	4.37

Sequence	SH2 binding enrichment
EDKSIYRRGAR [PRKCI_Y125]	0.594
FISLIYTNFEV [GSTP1_Y109_A114V_YF]	0.882
PDDPNYSLVDD [PSTPIP2_Y323]	0.822
PVQAAYQNVVA [HBB_Y131_K133N]	1.49
CTTVHYNYMCN [TP53_Y234_I232V]	3.24
QMVRMYASSYM [AVPR2_Y124_G122R]	0.64
FAELVYTSFWH [ASS1_Y322_G324S]	0.612
APQFTYTQGGQ [FLNA_Y1763_A1764T_YF]	0.503
FASALYRQRRS [FGF11_Y162_YF]	0.576
EKSREYHRLYE [PIK3R1_Y463_D464H]	0.589
RRVLVYGGRGA [QDPR_Y16]	0.683
ACLSLYGGFVE [MVD_Y164_R161L]	0.661
SENFTYIWWLN [PSG4_Y271_K267E_YF]	0.563
CTTIHQNYMCN [TP53_Y234_Y234Q]	1.13
KWHREYNSKYV [RICTOR_Y835]	1.31
SSEYHCVGGFY [CTSC_Y347_Y347C]	0.764

biological target: Grb2 SH2 (UniProt P62993); assay: as above
Sequence (P62993 whole entry, looked up): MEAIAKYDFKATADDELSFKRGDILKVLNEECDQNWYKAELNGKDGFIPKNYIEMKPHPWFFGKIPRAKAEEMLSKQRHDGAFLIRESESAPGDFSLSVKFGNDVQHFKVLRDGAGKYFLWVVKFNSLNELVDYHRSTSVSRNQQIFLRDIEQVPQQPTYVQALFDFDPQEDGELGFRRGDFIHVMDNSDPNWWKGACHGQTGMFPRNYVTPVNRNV

Sequence	SH2 binding enrichment
KLGDVYVNDAF [PGK1_Y161]	2.38
EFFDGYWEFSV [ITGA2B_Y265_G267E_YF]	0.674
LKFAIYFEARE [LAMA2_Y1258_YF]	1.08
NRLTDYYELLL [BBS10_Y536_P539L]	1.19
WDLSEYSYKDP [ITGA3_Y237]	0.932
CTTIHYNFMCS [TP53_Y234_N239S_YF]	1.79
HGDDDYDDPEL [CLNK_Y69_S65G]	0.99
MSPPGYKLVNG [GJA1_Y286_T290N]	0.837
PLDVEYFTLQI [TP53_Y327_G325V]	0.743
DENRFYTRAAS [RPS19_Y54_W52R]	1.11
SVVVPYEPHEV [TP53_Y220_P223H]	0.726
LSSVSYVGCSL [ADGRD1_Y571_I569V]	0.798
LLVVLNKYRCY [PSEN1_Y154_Y154N]	0.952
ALETLYKKAVK [CC2D2A_Y381_E376A]	0.889
QITQVYGFFHE [PPP2CA_Y127_D131H_YF]	1.03
LEQQKYTVTVD [IKBKB_Y199]	0.804
LTERSYSFVTT [ACTA1_Y200_G199S]	0.945

Sequence	SH2 binding enrichment
EDKSIYRRGAR [PRKCI_Y125]	0.713
FISLIYTNFEV [GSTP1_Y109_A114V_YF]	0.774
PDDPNYSLVDD [PSTPIP2_Y323]	1.11
PVQAAYQNVVA [HBB_Y131_K133N]	34.4
CTTVHYNYMCN [TP53_Y234_I232V]	1.08
QMVRMYASSYM [AVPR2_Y124_G122R]	0.899
FAELVYTSFWH [ASS1_Y322_G324S]	0.907
APQFTYTQGGQ [FLNA_Y1763_A1764T_YF]	0.75
FASALYRQRRS [FGF11_Y162_YF]	0.79
EKSREYHRLYE [PIK3R1_Y463_D464H]	0.647
RRVLVYGGRGA [QDPR_Y16]	0.608
ACLSLYGGFVE [MVD_Y164_R161L]	0.834
SENFTYIWWLN [PSG4_Y271_K267E_YF]	0.715
CTTIHQNYMCN [TP53_Y234_Y234Q]	0.923
KWHREYNSKYV [RICTOR_Y835]	1.47
SSEYHCVGGFY [CTSC_Y347_Y347C]	0.557

biological target: c-Src SH2; assay: as above

Sequence	SH2 binding enrichment
KLGDVYVNDAF [PGK1_Y161]	1.39
EFFDGYWEFSV [ITGA2B_Y265_G267E_YF]	0.494
LKFAIYFEARE [LAMA2_Y1258_YF]	0.352
NRLTDYYELLL [BBS10_Y536_P539L]	1.16
WDLSEYSYKDP [ITGA3_Y237]	0.878
CTTIHYNFMCS [TP53_Y234_N239S_YF]	2.25
HGDDDYDDPEL [CLNK_Y69_S65G]	0.565
MSPPGYKLVNG [GJA1_Y286_T290N]	0.439
PLDVEYFTLQI [TP53_Y327_G325V]	0.309
DENRFYTRAAS [RPS19_Y54_W52R]	0.876
SVVVPYEPHEV [TP53_Y220_P223H]	0.569
LSSVSYVGCSL [ADGRD1_Y571_I569V]	0.519
LLVVLNKYRCY [PSEN1_Y154_Y154N]	0.536
ALETLYKKAVK [CC2D2A_Y381_E376A]	0.511
QITQVYGFFHE [PPP2CA_Y127_D131H_YF]	0.745
LEQQKYTVTVD [IKBKB_Y199]	0.567
LTERSYSFVTT [ACTA1_Y200_G199S]	5.24

Sequence	SH2 binding enrichment
EDKSIYRRGAR [PRKCI_Y125]	0.409
FISLIYTNFEV [GSTP1_Y109_A114V_YF]	0.611
PDDPNYSLVDD [PSTPIP2_Y323]	1.42
PVQAAYQNVVA [HBB_Y131_K133N]	3.07
CTTVHYNYMCN [TP53_Y234_I232V]	6.3
QMVRMYASSYM [AVPR2_Y124_G122R]	0.455
FAELVYTSFWH [ASS1_Y322_G324S]	0.624
APQFTYTQGGQ [FLNA_Y1763_A1764T_YF]	0.597
FASALYRQRRS [FGF11_Y162_YF]	0.516
EKSREYHRLYE [PIK3R1_Y463_D464H]	6.12
RRVLVYGGRGA [QDPR_Y16]	0.407
ACLSLYGGFVE [MVD_Y164_R161L]	0.464
SENFTYIWWLN [PSG4_Y271_K267E_YF]	0.439
CTTIHQNYMCN [TP53_Y234_Y234Q]	0.982
KWHREYNSKYV [RICTOR_Y835]	1.14
SSEYHCVGGFY [CTSC_Y347_Y347C]	0.398
